Target: T1, LRRK2(G2019S) (Homo sapiens, UniProt Q5S007, G2019S/M2397T/R50H)
T1 construct: SF tag (FLAG + Twin-Strep); expressed in transfected cells; host or cells: HEK 293T
Experiment: In cellulo phospho-Rab / LRRK2 autophosphorylation assay in HEK293T cells
Assay type: cell-based
Design: key to Functional Group (see FIG. 2d): Group 1: group 1: Nbs that inhibit both LRRK2 autophosphorylation and Rab10 phosphorylation in cells; Group 2: group 2: Nbs that inhibit only Rab10 phosphorylation; Group 3: group 3: Nbs that activate LRRK2 kinase activity; Group 4: group 4: Nbs that have no consistent/clear effect on LRRK2 kinase activity
Conditions: for LRRK2 autophosphorylation at position S1292 / influence on LRRK2 kinase activity compared to the controls / Rab10 phosphorylation at position T72: HEK 293T cells co-expressing LRRK2(G2019S), Rab29 and Nb-GFP; for influence on LRRK2 kinase activity compared to the controls: Western blot; for Functional Group (see FIG. 2d): classification by effect on in cellulo LRRK2(G2019S) kinase activity; for Rab10 phosphorylation at position T72: endogenous Rab10
In short: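 Cells co-transfected (PEI) with SF-tagged LRRK2(G2019S), FLAG-HA Rab29 and Nb-GFP fusions, lysed after 48 hrs. Western blot read LRRK2 pS1292 and endogenous Rab10 pT72 with site-specific antibodies, referenced to total LRRK2 and Rab10; ECL chemiluminescence on film.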

T1 sequence (Q5S007 whole entry R50H/G2019S/M2397T): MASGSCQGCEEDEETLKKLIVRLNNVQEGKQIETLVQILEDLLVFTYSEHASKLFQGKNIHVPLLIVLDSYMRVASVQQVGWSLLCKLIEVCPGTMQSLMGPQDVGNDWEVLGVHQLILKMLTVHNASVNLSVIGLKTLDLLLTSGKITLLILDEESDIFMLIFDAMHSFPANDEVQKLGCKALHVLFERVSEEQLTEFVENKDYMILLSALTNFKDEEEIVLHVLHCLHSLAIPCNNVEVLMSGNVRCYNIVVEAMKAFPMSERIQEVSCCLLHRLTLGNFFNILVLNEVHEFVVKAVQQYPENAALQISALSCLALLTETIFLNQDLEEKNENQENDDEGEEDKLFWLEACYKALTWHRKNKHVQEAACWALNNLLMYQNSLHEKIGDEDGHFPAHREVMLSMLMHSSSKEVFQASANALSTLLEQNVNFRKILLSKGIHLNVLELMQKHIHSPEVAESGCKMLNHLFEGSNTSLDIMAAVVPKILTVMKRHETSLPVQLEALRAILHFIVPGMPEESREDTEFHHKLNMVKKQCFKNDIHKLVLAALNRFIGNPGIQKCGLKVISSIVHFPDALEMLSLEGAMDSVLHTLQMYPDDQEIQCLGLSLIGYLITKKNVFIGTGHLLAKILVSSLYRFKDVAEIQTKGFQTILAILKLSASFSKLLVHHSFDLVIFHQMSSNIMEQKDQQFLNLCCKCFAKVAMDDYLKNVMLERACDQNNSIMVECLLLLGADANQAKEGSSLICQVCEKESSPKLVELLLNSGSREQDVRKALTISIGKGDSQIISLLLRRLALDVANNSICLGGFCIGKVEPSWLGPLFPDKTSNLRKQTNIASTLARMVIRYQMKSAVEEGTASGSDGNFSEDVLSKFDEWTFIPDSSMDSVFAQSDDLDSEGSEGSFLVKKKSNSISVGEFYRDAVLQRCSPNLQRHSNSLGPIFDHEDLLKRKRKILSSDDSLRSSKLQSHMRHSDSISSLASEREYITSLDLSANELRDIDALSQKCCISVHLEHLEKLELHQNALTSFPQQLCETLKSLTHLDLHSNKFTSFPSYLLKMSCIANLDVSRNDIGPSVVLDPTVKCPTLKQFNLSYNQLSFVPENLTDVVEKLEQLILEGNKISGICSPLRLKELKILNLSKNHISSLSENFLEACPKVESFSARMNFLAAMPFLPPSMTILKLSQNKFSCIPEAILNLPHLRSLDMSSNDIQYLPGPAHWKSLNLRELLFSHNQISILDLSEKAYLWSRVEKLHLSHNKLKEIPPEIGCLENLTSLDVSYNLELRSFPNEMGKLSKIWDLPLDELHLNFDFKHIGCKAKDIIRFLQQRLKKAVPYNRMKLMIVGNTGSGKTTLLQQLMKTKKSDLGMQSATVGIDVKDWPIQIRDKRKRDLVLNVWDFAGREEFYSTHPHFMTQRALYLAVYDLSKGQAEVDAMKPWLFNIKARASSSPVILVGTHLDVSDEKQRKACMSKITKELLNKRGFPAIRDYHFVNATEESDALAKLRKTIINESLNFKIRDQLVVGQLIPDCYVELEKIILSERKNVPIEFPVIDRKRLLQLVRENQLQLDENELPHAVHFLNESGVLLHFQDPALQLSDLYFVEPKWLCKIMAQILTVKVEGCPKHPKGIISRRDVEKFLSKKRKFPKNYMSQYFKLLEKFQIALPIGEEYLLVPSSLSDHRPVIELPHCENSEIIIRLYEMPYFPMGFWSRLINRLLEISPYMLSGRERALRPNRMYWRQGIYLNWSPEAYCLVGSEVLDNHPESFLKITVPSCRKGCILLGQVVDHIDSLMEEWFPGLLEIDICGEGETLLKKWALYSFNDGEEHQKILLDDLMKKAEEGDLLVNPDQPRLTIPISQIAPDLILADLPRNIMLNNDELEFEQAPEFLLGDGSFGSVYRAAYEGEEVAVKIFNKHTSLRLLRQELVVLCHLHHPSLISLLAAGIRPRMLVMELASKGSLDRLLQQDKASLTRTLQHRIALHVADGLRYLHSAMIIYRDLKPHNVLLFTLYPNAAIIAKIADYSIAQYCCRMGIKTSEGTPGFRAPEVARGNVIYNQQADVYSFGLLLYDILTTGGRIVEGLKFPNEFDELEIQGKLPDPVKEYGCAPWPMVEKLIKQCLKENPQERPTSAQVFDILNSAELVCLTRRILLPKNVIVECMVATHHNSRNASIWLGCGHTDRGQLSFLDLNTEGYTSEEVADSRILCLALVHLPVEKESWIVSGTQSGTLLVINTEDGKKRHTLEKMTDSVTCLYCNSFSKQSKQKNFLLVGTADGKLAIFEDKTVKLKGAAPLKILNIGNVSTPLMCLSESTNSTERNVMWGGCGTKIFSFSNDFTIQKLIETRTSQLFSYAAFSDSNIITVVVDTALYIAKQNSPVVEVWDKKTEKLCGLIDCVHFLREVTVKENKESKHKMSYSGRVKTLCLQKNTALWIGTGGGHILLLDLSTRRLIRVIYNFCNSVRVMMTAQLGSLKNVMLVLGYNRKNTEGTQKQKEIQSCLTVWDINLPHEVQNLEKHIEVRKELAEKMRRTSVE

Functional Group (see FIG. 2d)	Molecule	LRRK2 autophosphorylation at position S1292	influence on LRRK2 kinase activity compared to the controls	Rab10 phosphorylation at position T72
Group 1	Nb42: LRRK2-specific Nanobody, SEQ ID NO: 6 (protein, Nanobody CA14259) VHH: MAQVQLVESGGGLVQAGGSLRLSCAASGDVNYAVGWFRQAPRKEREFVAAINWRGDNTDYTDSVKGRFTISRDNAKNTVYLQMNSLKPEDTAVYYCAAKSAPYWYSDIAPDYWGQGTQVTVSS	inhibit both Rab10 phosphorylation and LRRK2 autophosphorylation at S1292	strongly decreased LRRK2 autophosphorylation and/or Rab10 phosphorylation	inhibit both Rab10 phosphorylation and LRRK2 autophosphorylation at S1292
Group 1	Nb23: LRRK2-specific Nanobody, SEQ ID NO: 3 (protein, Nanobody CA13612) VHH: MAQVQLVESGGGLVQAGGSLRLSCAASGRTFSRYTMGWFRQAPGKDREFVARITTSGAVTTYADSAKGRFTISRDNAKNTVYLQMNTLKPEDTAVYYCAAGQGQLSSQSRFVDYWGQGTQVTVSS	inhibit both Rab10 phosphorylation and LRRK2 autophosphorylation at S1292	strongly decreased LRRK2 autophosphorylation and/or Rab10 phosphorylation	inhibit both Rab10 phosphorylation and LRRK2 autophosphorylation at S1292

The remaining lines, values behind:

Molecule	Functional Group (see FIG. 2d)	LRRK2 autophosphorylation at position S1292	influence on LRRK2 kinase activity compared to the controls	Rab10 phosphorylation at position T72
Nb1: LRRK2-specific Nanobody, SEQ ID NO: 1 (protein, Nanobody CA12610) VHH: MAQVQLVESGGGLVQAGGSLRLSCVASGRIFSGNAMGWYRQAPGRQRELVAGITNGGYTNYRQFVKGRFTISRDNAKRTVYLQMNSLKPEDTAVYYCNALDREARQVDYWGQGTQVTVSS	Group 1	inhibit both Rab10 phosphorylation and LRRK2 autophosphorylation at S1292	strongly decreased LRRK2 autophosphorylation and/or Rab10 phosphorylation	inhibit both Rab10 phosphorylation and LRRK2 autophosphorylation at S1292
Nb6: LRRK2-specific Nanobody, SEQ ID NO: 2 (protein, Nanobody CA12618) VHH: MAQVQLVESGGGLVQAGGSLRLSCAASGSIFSPTAMGWYRQAPGKERELVAGITSGGYTNYRNFARGRFTISRDNAKKTVYLQMNSLNPEDTAVYYCNTLTISWSWGQGTQVTVSS	Group 1	inhibit both Rab10 phosphorylation and LRRK2 autophosphorylation at S1292	strongly decreased LRRK2 autophosphorylation and/or Rab10 phosphorylation	inhibit both Rab10 phosphorylation and LRRK2 autophosphorylation at S1292
Nb22: LRRK2-specific Nanobody, SEQ ID NO: 9 (protein, Nanobody CA13611) VHH: MAQVQLVESGGGLVQAGGSLRLSCAASGRTFSSYTMGWFRQAPGKEREFVAAIRWSGGSTYYADSVKGRFTISRDNAKNTVYLQMNSLKPEDTAVYYCAASDRGGFIATSGGWMDYWGKGTQVTVSS	Group 3	–	significant increase of LRRK2 kinase activity	activating Rab10 phosphorylation in cells

From patent US20230087785A1, “Leucine-Rich Repeat Kinase 2 Allosteric Modulators” (VIB VZW, priority 2020, published 2023)
